B1: anti-IL-6 antibody, heavy chain S35T, G66D / light chain M32L, M50D, N52S, M88Q (antibody, IgG1, V domains shown)
VH: EVQLVESGGGLVQPGGSLRLSCAASGFTFSPFAMTWVRQAPGKGLEWVAKISPGGSWTYYSDTVTDRFTFSLDTSKSTAYLQMNSLRAEDTAVYYCARQLWGYYALDIWGQGTLVTVSS
VL: DIQLTQSPSSLSASVGDRVTITCSASISVSYLYWYQQKPGKAPKLLIYDDSSLASGVPSRFSGSGSGTDFTLTISSLQPEDFATYYCQQWSGYPYTFGQGTKVEIK
notes: Full IgG1 (Expi293); VL = variant III
B2: anti-IL-6 antibody, heavy chain S35V, G66D / light chain M32L, M50D, N52S, M88Q (antibody, IgG1, V domains shown)
VH: EVQLVESGGGLVQPGGSLRLSCAASGFTFSPFAMVWVRQAPGKGLEWVAKISPGGSWTYYSDTVTDRFTFSLDTSKSTAYLQMNSLRAEDTAVYYCARQLWGYYALDIWGQGTLVTVSS
VL: DIQLTQSPSSLSASVGDRVTITCSASISVSYLYWYQQKPGKAPKLLIYDDSSLASGVPSRFSGSGSGTDFTLTISSLQPEDFATYYCQQWSGYPYTFGQGTKVEIK
notes: as for B1
B3: anti-IL-6 antibody, heavy chain T63D, G66D / light chain M32L, M50D, N52S, M88Q (antibody, IgG1, V domains shown)
VH: EVQLVESGGGLVQPGGSLRLSCAASGFTFSPFAMSWVRQAPGKGLEWVAKISPGGSWTYYSDDVTDRFTFSLDTSKSTAYLQMNSLRAEDTAVYYCARQLWGYYALDIWGQGTLVTVSS
VL: DIQLTQSPSSLSASVGDRVTITCSASISVSYLYWYQQKPGKAPKLLIYDDSSLASGVPSRFSGSGSGTDFTLTISSLQPEDFATYYCQQWSGYPYTFGQGTKVEIK
notes: as for B1
B4: anti-IL-6 antibody, heavy chain T63G, G66D / light chain M32L, M50D, N52S, M88Q (antibody, IgG1, V domains shown)
VH: EVQLVESGGGLVQPGGSLRLSCAASGFTFSPFAMSWVRQAPGKGLEWVAKISPGGSWTYYSDGVTDRFTFSLDTSKSTAYLQMNSLRAEDTAVYYCARQLWGYYALDIWGQGTLVTVSS
VL: DIQLTQSPSSLSASVGDRVTITCSASISVSYLYWYQQKPGKAPKLLIYDDSSLASGVPSRFSGSGSGTDFTLTISSLQPEDFATYYCQQWSGYPYTFGQGTKVEIK
notes: as for B1
B5: anti-IL-6 antibody, heavy chain T63A, G66D / light chain M32L, M50D, N52S, M88Q (antibody, IgG1, V domains shown)
VH: EVQLVESGGGLVQPGGSLRLSCAASGFTFSPFAMSWVRQAPGKGLEWVAKISPGGSWTYYSDAVTDRFTFSLDTSKSTAYLQMNSLRAEDTAVYYCARQLWGYYALDIWGQGTLVTVSS
VL: DIQLTQSPSSLSASVGDRVTITCSASISVSYLYWYQQKPGKAPKLLIYDDSSLASGVPSRFSGSGSGTDFTLTISSLQPEDFATYYCQQWSGYPYTFGQGTKVEIK
notes: as for B1
B6: anti-IL-6 antibody, heavy chain T63F, G66D / light chain M32L, M50D, N52S, M88Q (antibody, IgG1, V domains shown)
VH: EVQLVESGGGLVQPGGSLRLSCAASGFTFSPFAMSWVRQAPGKGLEWVAKISPGGSWTYYSDFVTDRFTFSLDTSKSTAYLQMNSLRAEDTAVYYCARQLWGYYALDIWGQGTLVTVSS
VL: DIQLTQSPSSLSASVGDRVTITCSASISVSYLYWYQQKPGKAPKLLIYDDSSLASGVPSRFSGSGSGTDFTLTISSLQPEDFATYYCQQWSGYPYTFGQGTKVEIK
notes: as for B1
B7: anti-IL-6 antibody, heavy chain S35W, G66D / light chain M32L, M50D, N52S, M88Q (antibody, IgG1, V domains shown)
VH: EVQLVESGGGLVQPGGSLRLSCAASGFTFSPFAMWWVRQAPGKGLEWVAKISPGGSWTYYSDTVTDRFTFSLDTSKSTAYLQMNSLRAEDTAVYYCARQLWGYYALDIWGQGTLVTVSS
VL: DIQLTQSPSSLSASVGDRVTITCSASISVSYLYWYQQKPGKAPKLLIYDDSSLASGVPSRFSGSGSGTDFTLTISSLQPEDFATYYCQQWSGYPYTFGQGTKVEIK
notes: as for B1
B8: anti-IL-6 antibody, heavy chain S35Y, G66D / light chain M32L, M50D, N52S, M88Q (antibody, IgG1, V domains shown)
VH: EVQLVESGGGLVQPGGSLRLSCAASGFTFSPFAMYWVRQAPGKGLEWVAKISPGGSWTYYSDTVTDRFTFSLDTSKSTAYLQMNSLRAEDTAVYYCARQLWGYYALDIWGQGTLVTVSS
VL: DIQLTQSPSSLSASVGDRVTITCSASISVSYLYWYQQKPGKAPKLLIYDDSSLASGVPSRFSGSGSGTDFTLTISSLQPEDFATYYCQQWSGYPYTFGQGTKVEIK
notes: as for B1

target: T1, human IL-6 (human, UniProt P05231 30-212); test: SPR Biacore, supernatant Ab on Protein A chip, 37 C
T1 construct: IL-6 flowed over captured antibodies
Procedure: Antibodies were captured on a Protein A chip (GE) by injecting 1:20 cell supernatant dilutions at 10 μL/min for 60 seconds. […] The sensor chip was regenerated by a 60 seconds injection of 10 mM Glycine pH 1.7 at the flow rate of 50 μL/min. […] For this setup, 1 μg/mL of purified antibody was injected over a Protein A chip at 10 μL/min for 25 seconds. […] The sensor chip was regenerated by a 60 seconds injection of 10 mM Glycine pH 1.7 at flow rate of 50 μL/min. Data analysis for supernatant and purified samples were performed using BIAevaluation software (GE). All sensorgrams were double reference subtracted and fit using a 1:1 Langmuir binding model.

T1 sequence (P05231 30-212 limits assumed): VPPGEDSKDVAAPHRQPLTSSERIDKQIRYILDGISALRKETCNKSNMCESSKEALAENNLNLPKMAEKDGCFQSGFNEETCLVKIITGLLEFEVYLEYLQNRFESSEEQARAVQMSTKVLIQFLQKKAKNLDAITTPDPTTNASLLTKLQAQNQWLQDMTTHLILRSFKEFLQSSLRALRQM

**Q.** For B1, which Kd is on record?
**A.** 0.498 nM

**Q.** What about the koff of the same binder?
**A.** 0.000711 s⁻¹

**Q.** And the kon?
**A.** 1.43e+06 M⁻¹ s⁻¹

**Q.** How did the Kd turn out when B2 was run?
**A.** 1.33 nM

**Q.** And the koff?
**A.** 0.00137 s⁻¹

**Q.** And the kon?
**A.** 1.03e+06 M⁻¹ s⁻¹

**Q.** B3 was tested. Which Kd did it give?
**A.** 0.249 nM

**Q.** And the koff?
**A.** 0.000413 s⁻¹

**Q.** What about the kon of the same binder?
**A.** 1.66e+06 M⁻¹ s⁻¹

**Q.** B4 was tested. Which Kd did it give?
**A.** 0.261 nM

**Q.** What about the koff of the same binder?
**A.** 0.00045 s⁻¹

**Q.** And the kon?
**A.** 1.73e+06 M⁻¹ s⁻¹

**Q.** Which Kd does the source give for B5 here?
**A.** 0.268 nM

**Q.** What about the koff of the same binder?
**A.** 0.000458 s⁻¹

**Q.** And the kon?
**A.** 1.7e+06 M⁻¹ s⁻¹

**Q.** Which Kd does the source give for B6 here?
**A.** 0.274 nM

**Q.** What about the koff of the same binder?
**A.** 0.000459 s⁻¹

**Q.** What about the kon of the same binder?
**A.** 1.67e+06 M⁻¹ s⁻¹

**Q.** What does the source list for B7?
**A.** Kd: 34.6 nM; koff: 0.00591 s⁻¹; kon: 171000 M⁻¹ s⁻¹

**Q.** With B8 as the binder, how does the Kd read?
**A.** 3.43 nM

**Q.** What about the koff of the same binder?
**A.** 0.00404 s⁻¹

**Q.** And the kon?
**A.** 1.18e+06 M⁻¹ s⁻¹

Source: patent US20240209076A1 (KODIAK SCIENCES, published 2024)
